Experimental data taken from paper PMC6695192.

What was measured:
[1] = target: EGFP-fused ACBD3 GOLD domain (human) (UniProt Q9H3P7); test: MST; EGFP-fused GOLD domain at a constant 150 nM, GB1-fused 3A cytoplasmic domain in a series of concentrations; 30 mM Tris pH 7.4, 150 mM NaCl, 3 mM β-mercaptoethanol; Monolith NT.115
[2] = target: GB1-fused cytoplasmic domain of the enterovirus D68 3A protein, wild type (enterovirus D68); test: SEC
[3] = target: GOLD-EVD68 3A fusion protein, wild type (human | enterovirus D68) (UniProt Q9H3P7); test: […]; 30 mM Tris pH 7.4, 150 mM NaCl, 1 mM TCEP; […]
[4] = target: GOLD-EVD68 3A fusion protein, wild type (human | enterovirus D68) (UniProt Q9H3P7); test: SEC
[5] = target: GOLD-3A fusion protein LVVY mutant N-terminally fused to mAmetrine or mPlum (UniProt Q9H3P7); test: FRET by flow cytometry in HeLa cells (self-association of mAmetrine- and mPlum-fused GOLD-3A); conditions: mean FRET signal at a fixed acceptor signal (dashed line in f, acceptor fluorescence 100 a.u.); three independent experiments; p-value = 0.004; parent: est. …; read off a plot

GB1-fused cytoplasmic domain of the enterovirus A71 3A protein (domain or fragment)
Kd [1]: 15000 nM

GB1-fused cytoplasmic domain of the enterovirus D68 3A protein, wild type (domain or fragment)
Kd [1]: 1000 nM | stoichiometry N [2]: 2

GB1-fused cytoplasmic domain of the rhinovirus B14 3A protein (domain or fragment)
Kd [1]: 1000 nM

GOLD-EVD68 3A fusion protein, wild type (from UniProt Q9H3P7)
stoichiometry N [3]: 2 | stoichiometry N [4]: 2

wild-type GOLD-3A fusion protein N-terminally fused to mAmetrine or mPlum (from UniProt Q9H3P7) L25A; V29A; V34A; Y37A
response [5]: 3.9 a.u.
